Sequences and labels used below:
T1: FcγRIIa R (human, UniProt P12318 34-217)
T1 construct: extracellular domain; also called FcgRIIa R type; 2aR
T1 sequence (looked up): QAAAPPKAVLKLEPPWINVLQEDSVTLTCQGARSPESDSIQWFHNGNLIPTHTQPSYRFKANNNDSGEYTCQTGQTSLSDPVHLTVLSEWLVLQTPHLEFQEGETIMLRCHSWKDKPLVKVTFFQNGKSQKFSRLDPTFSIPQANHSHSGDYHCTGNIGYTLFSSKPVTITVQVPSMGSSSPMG

B1: GpH7-A5/GpH7-B3 variant E333_08L/GpL16-k0 (antibody, human IgG1, kappa)
heavy 1: not shown
heavy 2: not shown
light: DIVMTQSPLSLPVTPGEPASISCQASESLVHSNRNTYLHWYLQKPGQSPQLLIYKVSNRFSGVPDRFSGSGSGTDFTLKISRVEAEDVGVYYCSQNTHVPPTFGQGTKVEIERTVAAPSVFIFPPSDEQLKSGTASVVCLLNNFYPREAKVQWKVDNALQSGNSQESVTEQDSKDSTYSLSSTLTLSKADYEKHKVYACEVTHQGLSSPVTKSFNRGEC
notes: also called He Ab E333_08L
B2: GpH7-A5/GpH7-B3 variant G237_19Q/GpL16-k0 (antibody, human IgG1, kappa)
heavy 1: not shown
heavy 2: not shown
light: B1 light
notes: also called He Ab G237_19Q
B3: GpH7-A5/GpH7-B3 variant H268_15Y/GpL16-k0 (antibody, human IgG1, kappa)
heavy 1: not shown
heavy 2: not shown
light: B1 light
notes: also called He Ab H268_15Y
B4: GpH7-A5/GpH7-B3 variant G237_08L/GpL16-k0 (antibody, human IgG1, kappa)
heavy 1: not shown
heavy 2: not shown
light: B1 light
notes: also called He Ab G237_08L
B5: GpH7-A5/GpH7-B3 variant G236_14T/GpL16-k0 (antibody, human IgG1, kappa)
heavy 1: not shown
heavy 2: not shown
light: B1 light
notes: also called He Ab G236_14T
B6: GpH7-A5/GpH7-B3 variant G237_15Y/GpL16-k0 (antibody, human IgG1, kappa)
heavy 1: not shown
heavy 2: not shown
light: B1 light
notes: also called He Ab G237_15Y
B7: GpH7-A5/GpH7-B3 variant H268_01G/GpL16-k0 (antibody, human IgG1, kappa)
heavy 1: not shown
heavy 2: not shown
light: B1 light
notes: also called He Ab H268_01G
B8: GpH7-A5/GpH7-B3 variant E333_15Y/GpL16-k0 (antibody, human IgG1, kappa)
heavy 1: not shown
heavy 2: not shown
light: B1 light
notes: also called He Ab E333_15Y
B9: GpH7-A5/GpH7-B3 variant G237_04F/GpL16-k0 (antibody, human IgG1, kappa)
heavy 1: not shown
heavy 2: not shown
light: B1 light
notes: also called He Ab G237_04F
B10: GpH7-A5/GpH7-B3 variant G237_13S/GpL16-k0 (antibody, human IgG1, kappa)
heavy 1: not shown
heavy 2: not shown
light: B1 light
notes: also called He Ab G237_13S
B11: GpH7-A5/GpH7-B3 variant G237_10E/GpL16-k0 (antibody, human IgG1, kappa)
heavy 1: not shown
heavy 2: not shown
light: B1 light
notes: also called He Ab G237_10E
B12: GpH7-A5/GpH7-B3 variant H268_03V/GpL16-k0 (antibody, human IgG1, kappa)
heavy 1: not shown
heavy 2: not shown
light: B1 light
notes: also called He Ab H268_03V
B13: GpH7-A5/GpH7-B3 variant H268_05P/GpL16-k0 (antibody, human IgG1, kappa)
heavy 1: not shown
heavy 2: not shown
light: B1 light
notes: also called He Ab H268_05P
B14: GpH7-A5/GpH7-B3 variant H268_12R/GpL16-k0 (antibody, human IgG1, kappa)
heavy 1: not shown
heavy 2: not shown
light: B1 light
notes: also called He Ab H268_12R
B15: GpH7-A5/GpH7-B3 variant E333_09D/GpL16-k0 (antibody, human IgG1, kappa)
heavy 1: not shown
heavy 2: not shown
light: B1 light
notes: also called He Ab E333_09D
B16: GpH7-A5/GpH7-B3 variant G237_20W/GpL16-k0 (antibody, human IgG1, kappa)
heavy 1: not shown
heavy 2: not shown
light: B1 light
notes: also called He Ab G237_20W
B17: GpH7-A5/GpH7-B3 variant H268_11K/GpL16-k0 (antibody, human IgG1, kappa)
heavy 1: not shown
heavy 2: not shown
light: B1 light
notes: also called He Ab H268_11K
B18: GpH7-A5/GpH7-B3 variant G237_18N/GpL16-k0 (antibody, human IgG1, kappa)
heavy 1: not shown
heavy 2: not shown
light: B1 light
notes: also called He Ab G237_18N
B19: GpH7-A5/GpH7-B3 variant G237_09D/GpL16-k0 (antibody, human IgG1, kappa)
heavy 1: not shown
heavy 2: not shown
light: B1 light
notes: also called He Ab G237_09D
B20: GpH7-A5/GpH7-B3 variant G237_02A/GpL16-k0 (antibody, human IgG1, kappa)
heavy 1: not shown
heavy 2: not shown
light: B1 light
notes: also called He Ab G237_02A
B21: GpH7-A5/GpH7-B3 variant G237_06M/GpL16-k0 (antibody, human IgG1, kappa)
heavy 1: not shown
heavy 2: not shown
light: B1 light
notes: also called He Ab G237_06M

For 21 molecules, He/Con_2aR results are on record in patent US20150344570A1 (published 2015).

This assay concerns the target T1, FcγRIIa R. As to the kind of experiment: SPR (Biacore), captured antibody, FcγR as analyte; relative binding activity.
With B1, the He/Con_2aR is 103 % (GpH7-A5/GpH7-B3/GpL16-k0 = 100).
As to B2, the He/Con_2aR is 121 % (GpH7-A5/GpH7-B3/GpL16-k0 = 100).
With B3 the figure was 110 % (GpH7-A5/GpH7-B3/GpL16-k0 = 100).
Regarding B4, the He/Con_2aR is 133 % (GpH7-A5/GpH7-B3/GpL16-k0 = 100).
In the case of B5, the He/Con_2aR was 103 % (GpH7-A5/GpH7-B3/GpL16-k0 = 100).
For the molecule B6, the He/Con_2aR is 129 % (GpH7-A5/GpH7-B3/GpL16-k0 = 100).
For the molecule B7, the He/Con_2aR was 124 % (GpH7-A5/GpH7-B3/GpL16-k0 = 100).
On to B8, for which the He/Con_2aR is 101 % (GpH7-A5/GpH7-B3/GpL16-k0 = 100).
Turning to B9, the He/Con_2aR was 126 % (GpH7-A5/GpH7-B3/GpL16-k0 = 100).
Regarding B10, the He/Con_2aR was 121 % (GpH7-A5/GpH7-B3/GpL16-k0 = 100).
For the molecule B11, the He/Con_2aR was 116 % (GpH7-A5/GpH7-B3/GpL16-k0 = 100).
Take B12: the He/Con_2aR was 109 % (GpH7-A5/GpH7-B3/GpL16-k0 = 100).
In the case of B13, the He/Con_2aR is 106 % (GpH7-A5/GpH7-B3/GpL16-k0 = 100).
Consider B14, for which the He/Con_2aR is 105 % (GpH7-A5/GpH7-B3/GpL16-k0 = 100).
For the molecule B15, the He/Con_2aR was 103 % (GpH7-A5/GpH7-B3/GpL16-k0 = 100).
B16: the He/Con_2aR was 138 % (GpH7-A5/GpH7-B3/GpL16-k0 = 100).
As to B17, the He/Con_2aR is 100 % (GpH7-A5/GpH7-B3/GpL16-k0 = 100).
For the molecule B18, the He/Con_2aR was 150 % (GpH7-A5/GpH7-B3/GpL16-k0 = 100).
For the molecule B19, the He/Con_2aR is 156 % (GpH7-A5/GpH7-B3/GpL16-k0 = 100).
For the molecule B20, the He/Con_2aR was 126 % (GpH7-A5/GpH7-B3/GpL16-k0 = 100).
The result for B21 reads 133 % (GpH7-A5/GpH7-B3/GpL16-k0 = 100).
